Reference: article doi:10.1101/2020.12.04.411645 (bioRxiv, 2020)

Target: untagged full-length RAC1 Q61L (UniProt P63000 1-192, Q61L)
Experiment: SPR

Kd: 18.3 µM
B1: MBP-tagged full-length CYRI-B (natural protein)
chain: MGNLLKVLTCTDLEQGPNFFLDFENAQPTESEKEIYNQVNVVLKDAEGILEDLQSYRGAGHEIREAIQHPADEKLQEKAWGAVVPLVGKLKKFYEFSQRLEAALRGLLGALTSTPYSPTQHLEREQALAKQFAEILHFTLRFDELKMTNPAIQNDFSYYRRTLSRMRINNVPAEGENEVNNELANRMSLFYAEATPMLKTLSDATTKFVSENKNLPIENTTDCLSTMASVCRVMLETPEYRSRFTNEETVSFCLRVMVGVIILYDHVHPVGAFAKTSKIDMKGCIKVLKDQPPNSVEGLLNALRYTTKHLNDETTSKQIRSMLQ
